The record followed here is patent publication US20190284280A1 (ANAPTYSBIO, published 2019).

The term Kd denotes a measure of binding affinity in units of concentration. A word on the koff: it is the first-order rate constant of dissociation. For orientation: kon means the second-order rate constant of association. One may read the EC50 as the concentration that produces a half-maximal response.

The target of assay [1] is T1, soluble cynomolgus monkey TIM-3 fusion (cynomolgus monkey, UniProt A0A2K5U3G7 22-195).
T1 construct: The SPR method describes only the human mIgG2a Fc fusion; not shown: mIgG2a Fc i
T1 sequence: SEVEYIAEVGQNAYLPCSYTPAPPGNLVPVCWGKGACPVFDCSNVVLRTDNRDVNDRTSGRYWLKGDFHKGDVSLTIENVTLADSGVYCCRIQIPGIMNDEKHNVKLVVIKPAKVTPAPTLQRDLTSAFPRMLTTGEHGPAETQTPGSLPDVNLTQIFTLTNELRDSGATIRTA
The assay can be described thus: SPR Biacore T200; captured TIM-3 fusion, antibody flowed over; 1:1 model. A general note: In SPR one partner is held on a chip, and binding of the other changes the refractive index at the surface.

In assay [2] the target is T2, native human TIM-3 stably transfected in CHO-K1 cells (human, UniProt Q8TDQ0 22-301).
T2 construct: whole, on cells; also called cell-surface human TIM-3; human TIM-3 expressing CHO-K1 cells
T2 sequence (looked up): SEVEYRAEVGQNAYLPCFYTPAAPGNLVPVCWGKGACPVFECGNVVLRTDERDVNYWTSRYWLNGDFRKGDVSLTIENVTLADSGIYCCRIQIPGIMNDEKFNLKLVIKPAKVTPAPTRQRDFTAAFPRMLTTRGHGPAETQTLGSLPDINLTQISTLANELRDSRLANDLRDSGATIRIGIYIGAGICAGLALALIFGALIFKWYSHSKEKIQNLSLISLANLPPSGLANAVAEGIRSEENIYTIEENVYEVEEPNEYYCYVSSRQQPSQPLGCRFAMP
Nature of the assay: flow cytometry on human TIM-3 expressing CHO-K1 cells, PE anti-human IgG4 detection. On the procedure: (§1) Flow cytometry studies were performed with CHO-K1 cell line clones in which native human or cynomolgus monkey TIM-3 was stably transfected. An exemplary anti-TIM-3 antibody (having heavy and light chains as set forth in SEQ ID NOs: 1 & 2, respectively) was diluted in 3-fold dilutions. Dilutions of exemplary antibody were added to human or cynomolgus monkey TIM-3 expressing CHO-K1 cells (1E5 cells) and incubated on ice. Cells were washed twice and incubated on ice with PE-conjugated goat anti-human IgG4 to detect antibody binding. Cells were washed and resuspended in the presence of propidium iodide to exclude dead cells and fixed before fluorescence was analyzed on a BD FACSArray (BD Biosciences). Data were analyzed for median fluorescence intensity, graphed, and curves fitted for EC₅₀ value calculation in GraphPad Prism (GraphPad Software, Inc.) using a non-linear (sigmoidal) regression analysis.
For orientation: A flow cytometer gives signals particle by particle.

Assay [3] concerns the target T3, Dimeric soluble human TIM-3 mIgG2a Fc (human; mouse, UniProt Q8TDQ0 22-200).
T3 construct: Captured on an anti-mouse IgG (Fc-specific) Biacore CM5 surface; also called soluble TIM-3 fusion; not shown: mouse IgG2a Fc
T3 sequence (looked up): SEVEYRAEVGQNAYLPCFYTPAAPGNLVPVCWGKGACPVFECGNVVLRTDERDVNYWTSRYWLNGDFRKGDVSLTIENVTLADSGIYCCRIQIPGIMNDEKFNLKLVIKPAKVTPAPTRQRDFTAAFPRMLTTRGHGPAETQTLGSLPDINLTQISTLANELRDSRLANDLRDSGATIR
The assay can be described thus: SPR Biacore T200; TIM-3 fusion captured on anti-mouse IgG Fc, antibody flowed over; 1:1 model. On the procedure: SPR analyses were carried out using a Biacore T200, and kinetic constants were determined using Biacore T200 Evaluation software. […] GE anti-mouse IgG (Fc-specific) was immobilized on a Biacore CM5 chip using EDC-activated amine coupling chemistry. Dimeric soluble human TIM-3 mIgG2a Fc was then captured onto this surface to a target capture level of ˜70 RU or less. Next an exemplary anti-TIM-3 antibody (having heavy and light chains as set forth in SEQ ID NOs: 1 & 2, respectively) was flowed over the surface with captured antigen (TIM-3 fusion). Capture and analyte binding were performed in HBS-EP+ buffer. The captured antigen and antibodies were removed between each cycle to ensure a fresh binding surface for each concentration of […]. The resulting sensorgrams were fitted globally using a 1:1 binding model to calculate on- and off-rates (kassoc and kdissoc, respectively), and dissociation constants as a measure of overall affinity (KD).

In assay [4] the target is T4, native cynomolgus monkey TIM-3 stably transfected in CHO-K1 cells (cynomolgus monkey, UniProt A0A2K5U3G7 22-294).
T4 construct: whole, on cells; also called cell-surface cynomolgus monkey TIM-3; cynomolgus monkey TIM-3 expressing CHO-K1 cells
T4 sequence: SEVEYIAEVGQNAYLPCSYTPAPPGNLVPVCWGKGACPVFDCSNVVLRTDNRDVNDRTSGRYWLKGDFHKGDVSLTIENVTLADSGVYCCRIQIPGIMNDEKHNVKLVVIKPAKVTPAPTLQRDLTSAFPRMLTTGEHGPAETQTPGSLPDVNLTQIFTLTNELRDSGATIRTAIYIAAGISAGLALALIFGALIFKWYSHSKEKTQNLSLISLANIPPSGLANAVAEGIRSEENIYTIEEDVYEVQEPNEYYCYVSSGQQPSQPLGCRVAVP
Nature of the assay: flow cytometry on cynomolgus monkey TIM-3 expressing CHO-K1 cells, PE anti-human IgG4 detection. As for the experimental part: as §1

B1: exemplary anti-TIM-3 antibody (having heavy and light chains as set forth in SEQ ID NOs: 1 & 2, respectively) (antibody, human IgG4 S228P, kappa, V domains shown)
VH: EVQLLESGGGLVQPGGSLRLSCAAASGFTFSSYDMSWVRQAPGKGLDWVSTISGGGTYTYYQDSVKGRFTISRDNSKNTLYLQMNSLRAEDTAVYYCASMDYWGQGTTVTVSS
VL: DIQMTQSPSSLSASVGDRVTITCRASQSIRRYLNWYHQKPGKAPKLLIYGASTLQSGVPSRFSGSGSGTDFTLTISSLQPEDFAVYYCQQSHSAPLTFGGGTKVEIKR
modifications: N-glycosylation at asparagine residue 290 of SEQ ID NO:1
notes: Humanized IgG4 (human IGHG4*01) / kappa (IGKC*01); also called exemplary humanized monoclonal anti-TIM-3 antibody; anti-TIM-3 mAb
For the molecule B1, the values for the Kd in assay [1] and in assay [3] were 17 pM and 7 pM, respectively. For the same molecule, the koff was 0.00019 s⁻¹ in assay [1] and 0.00011 s⁻¹ in assay [3]. For the same molecule, the results for the association rate constant (kon) in assay [1] and in assay [3] were 1.1e+07 M⁻¹ s⁻¹ and 1.5e+07 M⁻¹ s⁻¹, respectively. The EC50 in assay [2] is 170 pM; in assay [4], 270 pM.
